Source: US20240092888A1 (AULOS BIOSCIENCE, published 2024)
Numbering of substitutions follows the chain as printed. Blank lines part the entries; values can stand above or below the binder they belong to.

Columns and labels:
[1] = target: T1, BDG17.069 complexed with hIL-2 (human, UniProt P60568 21-153); test: SPR, captured BDG17.069 loaded with hIL-2, CD25 injected before CD122 and again after CD122
T1 construct: Humanized IgG1 LALA captured on the SPR chip and saturated with 50 nM hIL-2
Excerpt: (§1) FIGS. 17A-17B. Present receptor discrimination of indicated antibody/IL-2 complex by tracing of SPR response. Antibody was immobilized to the CM5 chip, and hIL-2, CD122, and CD25 were streamed as indicated with an arrow. FIG. 17A presents a schematic order of injection of compounds to SPR chip, that represents sequential anti-IL-2 antibodies complexed with human IL-2 (hIL2), binding to CD122 but not to CD25.

[2] = target: T2, BDG17.066 complexed with hIL-2 (human, UniProt P60568 21-153); test: SPR, captured BDG17.066 loaded with hIL-2, CD25 injected before CD122 and again after CD122
T2 construct: Humanized IgG1 LALA on the SPR chip saturated with hIL-2
Excerpt: as §1

BDG17.023-hIL-2 complex = target: T3, BDG17.023-hIL-2 complex (human, UniProt P60568 21-153); test: SPR, BDG17.023 on the CM5 chip loaded with 50 nM hIL-2, CD122 then CD25 1000 nM
T3 construct: BDG17.023 (human IgG1 chimera) on the SPR chip saturated with 50 nM hIL-2; also called BDG17.023-IL-2 complex; Ab-IL-2 complex
Protocol: To test specific binding to CD25, BDG17.023 was immobilized to the CM5 chip to a target RU of approximately 300 RU as described above. Subsequently, 50 nM IL-2 was injected till the BDG17.023 or control antibody were saturated. Then the Ab-IL-2 complex was washed with PBS-T buffer for 10 sec and 1000 nM of CD25 was injected and monitored for response.
To test specific binding to CD122, BDG17.023 was immobilized to the CM5 chip to a target RU of approximately 300 RU-500 RU as described above. Subsequently, 50 nM hIL-2 was injected till the BDG17.023 antibody was saturated with hIL-2. Next the Ab-IL-2 complex was washed with PBS-T buffer for 10 sec and 1000 nM of CD122 was injected and response was monitored.

[3] = target: T4, BDG17.043 complexed with hIL-2 (human, UniProt P60568 21-153); test: SPR, captured BDG17.043 loaded with 50 nM hIL-2, CD25 injected before CD122
T4 construct: Humanized IgG1 captured on the SPR chip and saturated with 50 nM hIL-2; also called BDG17.043/hIL-2
Excerpt: as §1

[4] = target: T5, BDG17.038 complexed with hIL-2 (human, UniProt P60568 21-153); test: SPR, captured BDG17.038 loaded with 50 nM hIL-2, CD25 injected before CD122
T5 construct: Humanized IgG1 captured on the SPR chip and saturated with 50 nM hIL-2; also called BDG17.038/hIL-2
Excerpt: as §1

[5] = target: T6, BDG17.054 complexed with hIL-2 (human, UniProt P60568 21-153); test: SPR, captured BDG17.054 loaded with 50 nM hIL-2, CD25 injected before CD122 and again after CD122
T6 construct: Humanized IgG1 captured on the SPR chip and saturated with 50 nM hIL-2; also called BDG17.054/hIL-2
Excerpt: as §1
(§2) To test specific binding of the humanized antibodies IL-2 complex to CD122 and CD25, antibodies BDG17.038, BDG17.043, BDG17.053, BDG17.054, BDG17.067, BDG17.069 (See, Tables 6 and 7 of Example 2 for sequence information for these clones) were immobilized to an a capture antibody attached to CM5 chip channel to a target RU of approximately 300 RU as described above. Subsequently, 50 nM IL-2 was injected till the respective antibody was saturated with hIL-2. Then the Ab-IL-2 complex was washed with PBS-T buffer for 60 sec and 1000 nM of CD25 was injected and monitored for response. Subsequently, running buffer was injected for 60 seconds to reach a steady baseline, and then 1000 nM of CD122 was injected for 30 seconds in a flow rate of 30 ul/min. To test CD122 binding, the same experiment was repeated in reverse order, with CD122 injected first flowed by injection of CD25.

[6] = target: T7, BDG17.067 complexed with hIL-2 (human, UniProt P60568 21-153); test: SPR, captured BDG17.067 loaded with hIL-2, CD25 injected before CD122 and again after CD122
T7 construct: Humanized IgG1 LALA captured on the SPR chip and saturated with 50 nM hIL-2; also called BDG17.0067 complexed with hIL-2
Excerpt: as §1, §2

[7] = target: T8, BDG17.053 complexed with hIL-2 (human, UniProt P60568 21-153); test: SPR, captured antibody saturated with 50 nM hIL-2, then CD25 and CD122 injected in both orders
T8 construct: Humanized IgG1 captured on the SPR chip and saturated with 50 nM hIL-2
Protocol: as §2

human IL-2 [8] = target: T9, human IL-2 (human, UniProt P60568 21-153); test: yeast surface display flow cytometry, 0.1 nM hIL-2, MFI normalized to expression
T9 construct: SPR used Reprokine human IL-2; the result sentences say only hIL-2 or labeled human IL-2, so the same molecule is used here; also called hIL-2; recombinant human IL-2

human IL-2 [9] = target: T9, human IL-2; test: yeast surface display, selection against human IL-2

T9 sequence (P60568 21-153 limits assumed): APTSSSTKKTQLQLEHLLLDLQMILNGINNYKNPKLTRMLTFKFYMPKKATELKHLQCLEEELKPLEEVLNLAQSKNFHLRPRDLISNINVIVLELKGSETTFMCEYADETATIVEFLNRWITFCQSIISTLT
T1 sequence (heavy, as listed by the source limits assumed, chain 1 of 3): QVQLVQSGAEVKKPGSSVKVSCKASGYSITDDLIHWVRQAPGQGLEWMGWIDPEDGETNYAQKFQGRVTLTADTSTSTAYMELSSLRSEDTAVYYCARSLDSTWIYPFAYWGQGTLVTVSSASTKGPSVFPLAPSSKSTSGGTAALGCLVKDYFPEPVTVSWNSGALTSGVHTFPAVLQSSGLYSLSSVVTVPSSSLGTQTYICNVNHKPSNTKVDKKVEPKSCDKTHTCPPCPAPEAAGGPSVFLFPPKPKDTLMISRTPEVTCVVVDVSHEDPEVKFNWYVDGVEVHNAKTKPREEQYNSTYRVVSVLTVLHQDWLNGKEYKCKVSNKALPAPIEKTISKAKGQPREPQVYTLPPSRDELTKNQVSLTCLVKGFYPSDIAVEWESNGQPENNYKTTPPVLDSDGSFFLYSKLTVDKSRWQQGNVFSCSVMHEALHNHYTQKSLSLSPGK
T1 sequence (light, as listed by the source limits assumed, chain 2 of 3): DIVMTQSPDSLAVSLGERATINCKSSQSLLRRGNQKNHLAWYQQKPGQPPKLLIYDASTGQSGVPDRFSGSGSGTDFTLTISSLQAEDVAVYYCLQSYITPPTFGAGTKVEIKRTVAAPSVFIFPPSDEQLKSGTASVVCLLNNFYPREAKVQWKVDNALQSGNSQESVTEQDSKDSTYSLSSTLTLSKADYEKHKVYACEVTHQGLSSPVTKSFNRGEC
T1 sequence (P60568 21-153 limits assumed, chain 3 of 3): as the sequence (P60568 21-153 limits assumed) above
T7 sequence (heavy, as listed by the source limits assumed, chain 1 of 3): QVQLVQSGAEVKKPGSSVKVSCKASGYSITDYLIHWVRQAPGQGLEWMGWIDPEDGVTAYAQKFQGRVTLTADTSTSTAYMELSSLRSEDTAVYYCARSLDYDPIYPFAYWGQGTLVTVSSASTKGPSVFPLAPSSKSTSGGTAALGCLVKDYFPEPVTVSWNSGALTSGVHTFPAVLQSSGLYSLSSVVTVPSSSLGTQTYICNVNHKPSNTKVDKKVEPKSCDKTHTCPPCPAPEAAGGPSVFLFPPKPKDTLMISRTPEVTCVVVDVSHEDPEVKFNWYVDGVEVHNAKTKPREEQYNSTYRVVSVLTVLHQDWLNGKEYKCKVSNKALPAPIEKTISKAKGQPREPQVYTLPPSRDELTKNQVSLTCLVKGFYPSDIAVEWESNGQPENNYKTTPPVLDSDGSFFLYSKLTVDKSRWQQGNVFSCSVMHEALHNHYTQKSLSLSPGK
T7 sequence (light, as listed by the source limits assumed, chain 2 of 3): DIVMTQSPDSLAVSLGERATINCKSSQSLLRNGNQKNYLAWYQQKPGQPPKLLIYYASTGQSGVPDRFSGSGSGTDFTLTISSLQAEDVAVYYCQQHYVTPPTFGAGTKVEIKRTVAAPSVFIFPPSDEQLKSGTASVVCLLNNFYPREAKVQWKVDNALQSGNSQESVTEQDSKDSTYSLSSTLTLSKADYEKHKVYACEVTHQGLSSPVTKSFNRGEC
T7 sequence (P60568 21-153 limits assumed, chain 3 of 3): as the sequence (P60568 21-153 limits assumed) above
T5 sequence (VH, as listed by the source limits assumed, chain 1 of 3): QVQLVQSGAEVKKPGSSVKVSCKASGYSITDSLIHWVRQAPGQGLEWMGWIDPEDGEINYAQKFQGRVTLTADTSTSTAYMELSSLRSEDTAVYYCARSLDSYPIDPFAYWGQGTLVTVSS
T5 sequence (VL, as listed by the source limits assumed, chain 2 of 3): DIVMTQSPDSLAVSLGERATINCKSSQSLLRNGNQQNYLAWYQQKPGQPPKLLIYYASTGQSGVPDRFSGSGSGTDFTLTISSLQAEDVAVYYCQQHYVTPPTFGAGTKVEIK
T5 sequence (P60568 21-153 limits assumed, chain 3 of 3): as the sequence (P60568 21-153 limits assumed) above
T4 sequence (VH, as listed by the source limits assumed, chain 1 of 3): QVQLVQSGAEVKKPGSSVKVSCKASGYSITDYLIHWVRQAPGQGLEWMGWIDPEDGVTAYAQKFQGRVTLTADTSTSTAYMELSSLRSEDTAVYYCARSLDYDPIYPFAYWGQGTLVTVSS
T4 sequence (VL, as listed by the source limits assumed, chain 2 of 3): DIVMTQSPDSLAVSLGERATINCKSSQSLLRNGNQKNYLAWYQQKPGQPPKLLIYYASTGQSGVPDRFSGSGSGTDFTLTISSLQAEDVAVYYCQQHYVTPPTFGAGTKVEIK
T4 sequence (P60568 21-153 limits assumed, chain 3 of 3): as the sequence (P60568 21-153 limits assumed) above
T2 sequence (heavy, as listed by the source limits assumed, chain 1 of 3): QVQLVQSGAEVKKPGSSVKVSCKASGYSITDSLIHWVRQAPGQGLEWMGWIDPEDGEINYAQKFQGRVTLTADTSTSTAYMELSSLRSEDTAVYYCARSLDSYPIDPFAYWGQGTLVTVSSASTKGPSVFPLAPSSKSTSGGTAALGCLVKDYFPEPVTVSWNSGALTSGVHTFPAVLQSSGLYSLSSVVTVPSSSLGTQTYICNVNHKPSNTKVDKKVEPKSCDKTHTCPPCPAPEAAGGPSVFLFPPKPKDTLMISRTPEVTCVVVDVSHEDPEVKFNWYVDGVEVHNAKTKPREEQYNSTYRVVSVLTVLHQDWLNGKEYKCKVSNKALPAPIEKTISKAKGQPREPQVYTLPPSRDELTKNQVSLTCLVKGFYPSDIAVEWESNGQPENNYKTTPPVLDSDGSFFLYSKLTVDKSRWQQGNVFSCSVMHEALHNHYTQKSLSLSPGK
T2 sequence (light, as listed by the source limits assumed, chain 2 of 3): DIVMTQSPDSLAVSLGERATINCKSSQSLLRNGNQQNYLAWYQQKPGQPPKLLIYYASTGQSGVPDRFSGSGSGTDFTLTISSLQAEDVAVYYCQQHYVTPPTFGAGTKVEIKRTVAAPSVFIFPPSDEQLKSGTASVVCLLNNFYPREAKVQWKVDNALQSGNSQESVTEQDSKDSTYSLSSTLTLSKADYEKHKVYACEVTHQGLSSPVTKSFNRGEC
T2 sequence (P60568 21-153 limits assumed, chain 3 of 3): as the sequence (P60568 21-153 limits assumed) above
T6 sequence (VH, as listed by the source limits assumed, chain 1 of 3): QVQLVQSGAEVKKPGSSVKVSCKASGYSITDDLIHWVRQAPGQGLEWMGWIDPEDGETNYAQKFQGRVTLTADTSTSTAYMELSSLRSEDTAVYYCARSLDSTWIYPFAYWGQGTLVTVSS
T6 sequence (VL, as listed by the source limits assumed, chain 2 of 3): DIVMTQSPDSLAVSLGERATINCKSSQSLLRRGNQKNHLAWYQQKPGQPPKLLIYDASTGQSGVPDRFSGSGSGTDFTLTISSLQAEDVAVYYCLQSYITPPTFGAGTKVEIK
T6 sequence (P60568 21-153 limits assumed, chain 3 of 3): as the sequence (P60568 21-153 limits assumed) above
T3 sequence (P60568 21-153 limits assumed, one chain of several): as the sequence (P60568 21-153 limits assumed) above
T8 sequence (VH, as listed by the source limits assumed, chain 1 of 3): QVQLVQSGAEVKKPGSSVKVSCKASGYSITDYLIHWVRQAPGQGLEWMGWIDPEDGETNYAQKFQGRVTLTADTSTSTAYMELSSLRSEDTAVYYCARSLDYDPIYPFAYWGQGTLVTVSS
T8 sequence (VL, as listed by the source limits assumed, chain 2 of 3): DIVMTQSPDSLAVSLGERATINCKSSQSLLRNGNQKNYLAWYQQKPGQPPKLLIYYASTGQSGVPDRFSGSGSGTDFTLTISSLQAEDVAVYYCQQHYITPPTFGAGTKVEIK
T8 sequence (P60568 21-153 limits assumed, chain 3 of 3): as the sequence (P60568 21-153 limits assumed) above

binding result [1]: no binding
binding result [2]: no binding
binding result (BDG17.023-hIL-2 complex): no binding (tested: 1000 nM)
binding result [3]: no binding
binding result [4]: no binding (tested: 1000 nM)
binding result [5]: no binding (tested: 1000 nM)
binding result [6]: no binding
binding result [7]: no binding (tested: 1000 nM CD25)
B1: human CD25 (receptor, UniProt P01589 22-240, looked up)
chain: ELCDDDPPEIPHATFKAMAYKEGTMLNCECKRGFRRIKSGSLYMLCTGNSSHSSWDNQCQCTSSATRNTTKQVTPQPEEQKERKTTEMQSPMQPVDQASLPGHCREPPPWENEATERIYHFVVGQMVYYQCVQGYRALHRGPAESVCKMTHGKTRWTQPQLICTGEMETSQFPGEEKPQASPEGRPESETSCLVTTTDFQIQTEMAATMETSIFTTEYQ
notes: also called IL-2R alpha

binding result (human IL-2 [8]): binds
B6: clone 6 (17.035) scFv, yeast surface display clone (scFv)
scFv: EIQLQQSGPELRRPGSSVKLSCKASGYNITDYLIHWVRHRPEHGLEWIGWIDPEDGETRYAQKFQSKATLTADTSSNAAYMQLSSLTPEDTATYFCARSLDSTYNYPFAYWGQGTLVTVSSGGGGSGGGGSGGGGSDIVMTQSPFSLAVSEGEMVTINCKSSQSLLRSGNQKNYLAWYQQKPGQSPKLLIYYASTGQSGVPDRFIGSGSGTDFTLTISDVQAEDLADYYCLQHWISPPTFGAGTKLELK

binding result (human IL-2 [8]): binds
B7: clone 1 (17.021) scFv, yeast surface display clone (scFv)
scFv: B6 scFv with Y32N, N105I, W234Y, I235Q

Continued, binder first:

B2: clone 2 (17.022) scFv, yeast surface display clone (scFv)
scFv: B6 scFv with Y104W, N105I, W234Y, S236T
binding result (human IL-2 [8]): binds

B3: clone 5 (17.030) scFv, yeast surface display clone (scFv)
scFv: B6 scFv with N105D, W234Y
binding result (human IL-2 [8]): binds

B4: clone 4 (17.023) scFv, yeast surface display clone (scFv)
scFv: B6 scFv with S99Q, N105I, W234Y, S236T
binding result (human IL-2 [8]): binds

B5: clone C #7 (173R5C1-17.002) (scFv)
scFv: B6 scFv with Y104P, N105I, W234Y, S236T
notes: Yeast surface display clone from the JES6.1 scFv library
binding result (human IL-2 [9]): binds
